{"source": "the supplement of paper PMC9112550", "about": "“Optimization of the antimicrobial peptide Bac7 by deep mutational scanning” (BMC Biology, 2022);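 note: peptides expressed intracellularly from a pBAD plasmid library in pooled LB shake-flask culture, induced with 0.3% L-arabinose, DNA abundance read by NGS, three biological replicates, DESeq2 with apeglm shrinkage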", "data": [{"system": "Escherichia coli TOP10", "test": "shrunken log2 fold change of peptide-encoding DNA abundance (4.5 h post-induction vs induction); higher = less antimicrobial activity (less host growth inhibition)", "details": "time post-induction: 4.5 h; library: site-saturation at positions 5, 18, 19, 20", "values": [{"sequence": "RRIRPRPPRLPRPRPRPHVNPRP", "shrunken log2 fold change": -0.38}, {"sequence": "RRIRYRPPRLPRPRPRPVTQPRP", "shrunken log2 fold change": 3.05}, {"sequence": "RRIRKRPPRLPRPRPRPWDGPRP", "shrunken log2 fold change": -0.0231}, {"sequence": "RRIRPRPPRLPRPRPRPTEFPRP", "shrunken log2 fold change": -0.268}, {"sequence": "RRIRCRPPRLPRPRPRPQTVPRP", "shrunken log2 fold change": -0.275}, {"sequence": "RRIRLRPPRLPRPRPRPNAQPRP", "shrunken log2 fold change": -0.0471}, {"sequence": "RRIRNRPPRLPRPRPRPKMAPRP", "shrunken log2 fold change": -0.00757}, {"sequence": "RRIRERPPRLPRPRPRPHLAPRP", "shrunken log2 fold change": 0.101}, {"sequence": "RRIRLRPPRLPRPRPRPRAQPRP", "shrunken log2 fold change": 0.423}, {"sequence": "RRIRIRPPRLPRPRPRPGWPPRP", "shrunken log2 fold change": 0.353}, {"sequence": "RRIRWRPPRLPRPRPRPTIGPRP", "shrunken log2 fold change": 0.217}, {"sequence": "RRIRRRPPRLPRPRPRPVLEPRP", "shrunken log2 fold change": 0.599}, {"sequence": "RRIRSRPPRLPRPRPRPFYRPRP", "shrunken log2 fold change": -0.271}, {"sequence": "RRIRERPPRLPRPRPRPSGRPRP", "shrunken log2 fold change": 0.226}, {"sequence": "RRIRNRPPRLPRPRPRPPFHPRP", "shrunken log2 fold change": -0.17}, {"sequence": "RRIRLRPPRLPRPRPRPGPIPRP", "shrunken log2 fold change": 0.195}, {"sequence": "RRIRVRPPRLPRPRPRPAYWPRP", "shrunken log2 fold change": -0.000323}, {"sequence": "RRIRLRPPRLPRPRPRPVSHPRP", "shrunken log2 fold change": 0.0743}, {"sequence": "RRIRWRPPRLPRPRPRPGELPRP", "shrunken log2 fold change": 0.532}, {"sequence": "RRIRGRPPRLPRPRPRPKAFPRP", "shrunken log2 fold change": 0.157}, {"sequence": "RRIRRRPPRLPRPRPRPHACPRP", "shrunken log2 fold change": 0.192}, {"sequence": "RRIRLRPPRLPRPRPRPKFSPRP", "shrunken log2 fold change": -0.0419}, {"sequence": "RRIRVRPPRLPRPRPRPTSMPRP", "shrunken log2 fold change": -0.192}, {"sequence": "RRIRLRPPRLPRPRPRPGPCPRP", "shrunken log2 fold change": 0.121}, {"sequence": "RRIRRRPPRLPRPRPRPFSLPRP", "shrunken log2 fold change": 0.0919}, {"sequence": "RRIRHRPPRLPRPRPRPFKNPRP", "shrunken log2 fold change": -0.0803}, {"sequence": "RRIRHRPPRLPRPRPRPLHEPRP", "shrunken log2 fold change": 0.0601}, {"sequence": "RRIRFRPPRLPRPRPRPYEHPRP", "shrunken log2 fold change": -0.0962}, {"sequence": "RRIRKRPPRLPRPRPRPHFCPRP", "shrunken log2 fold change": -0.167}, {"sequence": "RRIRERPPRLPRPRPRPFPWPRP", "shrunken log2 fold change": -0.0723}, {"sequence": "RRIRGRPPRLPRPRPRPFSAPRP", "shrunken log2 fold change": 0.0503}, {"sequence": "RRIRQRPPRLPRPRPRPNENPRP", "shrunken log2 fold change": -0.0578}, {"sequence": "RRIRLRPPRLPRPRPRPQLGPRP", "shrunken log2 fold change": -0.0132}, {"sequence": "RRIRIRPPRLPRPRPRPMHWPRP", "shrunken log2 fold change": -0.194}, {"sequence": "RRIRSRPPRLPRPRPRPWPQPRP", "shrunken log2 fold change": 0.0548}, {"sequence": "RRIRMRPPRLPRPRPRPECWPRP", "shrunken log2 fold change": 2.25}, {"sequence": "RRIRARPPRLPRPRPRPEGPPRP", "shrunken log2 fold change": 0.577}, {"sequence": "RRIRLRPPRLPRPRPRPRQEPRP", "shrunken log2 fold change": 0.0259}, {"sequence": "RRIRVRPPRLPRPRPRPTMIPRP", "shrunken log2 fold change": 0.0351}, {"sequence": "RRIRGRPPRLPRPRPRPLAFPRP", "shrunken log2 fold change": 0.487}, {"sequence": "RRIRERPPRLPRPRPRPGNHPRP", "shrunken log2 fold change": -0.141}, {"sequence": "RRIRVRPPRLPRPRPRPNPHPRP", "shrunken log2 fold change": -0.185}, {"sequence": "RRIRRRPPRLPRPRPRPWEKPRP", "shrunken log2 fold change": 0.0936}, {"sequence": "RRIRKRPPRLPRPRPRPPDDPRP", "shrunken log2 fold change": 1.99}, {"sequence": "RRIRCRPPRLPRPRPRPMRVPRP", "shrunken log2 fold change": 0.839}, {"sequence": "RRIRARPPRLPRPRPRPKWSPRP", "shrunken log2 fold change": 0.354}, {"sequence": "RRIRQRPPRLPRPRPRPPAKPRP", "shrunken log2 fold change": 0.358}, {"sequence": "RRIRMRPPRLPRPRPRPQGDPRP", "shrunken log2 fold change": -0.477}, {"sequence": "RRIRIRPPRLPRPRPRPIRFPRP", "shrunken log2 fold change": -1.35}, {"sequence": "RRIRCRPPRLPRPRPRPFVTPRP", "shrunken log2 fold change": 0.663}, {"sequence": "RRIRTRPPRLPRPRPRPSPPPRP", "shrunken log2 fold change": -0.0898}, {"sequence": "RRIRQRPPRLPRPRPRPLCAPRP", "shrunken log2 fold change": 0.172}, {"sequence": "RRIRLRPPRLPRPRPRPFPIPRP", "shrunken log2 fold change": -0.0478}, {"sequence": "RRIRYRPPRLPRPRPRPRHDPRP", "shrunken log2 fold change": -0.237}, {"sequence": "RRIRDRPPRLPRPRPRPTTHPRP", "shrunken log2 fold change": 0.313}, {"sequence": "RRIRKRPPRLPRPRPRPFHRPRP", "shrunken log2 fold change": -0.0303}, {"sequence": "RRIRPRPPRLPRPRPRPDKCPRP", "shrunken log2 fold change": -0.432}, {"sequence": "RRIRTRPPRLPRPRPRPQKMPRP", "shrunken log2 fold change": 0.176}, {"sequence": "RRIRARPPRLPRPRPRPPIPPRP", "shrunken log2 fold change": 0.319}, {"sequence": "RRIRQRPPRLPRPRPRPPQEPRP", "shrunken log2 fold change": -0.00749}]}]}
